Our source for the Km values is ChEMBL document CHEMBL1135749, “Stereoselective synthesis and antiviral activity of D-2',3'-didehydro-2',3'-dideoxy-2'-fluoro-4'-thionucleosides” (J Med Chem, 2002).

For this series, the target named is Adenosine deaminase (Bos taurus) (UniProt P56658). The series can be described thus: Binding efficiency towards mammalian Adenosine deaminase from calf intestinal mucosa.

B1: Adenosine deaminase (Bos taurus), P56658 (protein)
chain: MAQTPAFNKPKVELHVHLDGAIKPETILYYGRKRGIALPADTPEELQNIIGMDKPLSLPEFLAKFDYYMPAIAGCREAVKRIAYEFVEMKAKDGVVYVEVRYSPHLLANSKVEPIPWNQAEGDLTPDEVVSLVNQGLQEGERDFGVKVRSILCCMRHQPSWSSEVVELCKKYREQTVVAIDLAGDETIEGSSLFPGHVKAYAEAVKSGVHRTVHAGEVGSANVVKEAVDTLKTERLGHGYHTLEDATLYNRLRQENMHFEVCPWSSYLTGAWKPDTEHPVVRFKNDQVNYSLNTDDPLIFKSTLDTDYQMTKNEMGFTEEEFKRLNINAAKSSFLPEDEKKELLDLLYKAYGMPSPASAEQCL
What is called Km is the substrate concentration at which the rate is half of its maximum. As to B1, the Km was determined as 18.3 µM.
